Data from US7232659 (dated 2007).
No end group written: not given here. *: point of attachment. For = O=C*

B1: formyl peptide receptor (FPR), wild type, detergent-solubilized (receptor, human, UniProt P21462 1-350, looked up)
chain: METNSSLPTNISGGTPAVSAGYLFLDIITYLVFAVTFVLGVLGNGLVIWVAGFRMTHTVTTISYLNLAVADFCFTSTLPFFMVRKAMGGHWPFGWFLCKFVFTIVDINLFGSVFLIALIALDRCVCVLHPVWTQNHRTVSLAKKVIIGPWVMALLLTLPVIIRVTTVPGKTGTVACTFNFSPWTNDPKERINVAVAMLTVRGIIRFIIGFSAPMSIVAVSYGLIATKIHKQGLIKSSRPLRVLSFVAAAFFLCWSPYQVVALIATVRIRELLQGMYKEIGIAVDVTSALAFFNSCLNPMLYVFMGQDFRERLIHALPASLERALTEDSTQTSDTATNSTLPSAEVELQAK
notes: Used as a crude dodecyl maltoside extract of U937 membranes, not purified; In ternary complex assays it is occupied by the fluorescent ligand L^F; also called wild type receptor; soluble FPR
B3: FPR-GFP fusion protein (receptor)
chain: not shown
notes: also called R^F; receptor-GFP fusion protein

What was measured:
[1] = target: T1, G protein heterotrimer αi3β1H6γ2 (human, UniProt P62873 2-340; P59768 2-68); experiment: flow cytometry, L^FRG assembly on αi3β1H6γ2 DCNi beads, more nearly optimal conditions
[2] = target: T1, G protein heterotrimer αi3β1H6γ2; experiment: flow cytometry, αi3β1H6γ2 on DCNi beads, 60 nM FPR with 75 nM L^F; uncoated beads about 9,000 fluorophores
Procedure: (§1) Each mixture was mixed by pipetting to ensure a uniform starting suspension of the beads in 96 V-well plates (Costar), and then mixed at low speed on a vortex mixer at 7° for two hours. The 10 μl assays were individually brought to 200 μl with 0.1% dodecyl maltoside in buffer A in 12×75 mm tubes for flow cytometric measurement of fluorescence of the beads. LRG assembly was defined as the difference between fluorescence without GTPγS and that with GTPγS. All determinations were done in duplicate.
(§2) The 10 μl assay was then diluted to 200 μl for spectrofluorimetric measurement. […] Uncoated beads were used in an assembly assay, bar 1, or were coated with G protein βγ only and used in an assembly assay, bar 2.

β1H6γ2 dimer [3] = target: T2, β1H6γ2 dimer (human, UniProt P62873 2-340; P59768 2-68); experiment: flow cytometry of DCNi beads coated with βγ, 60 nM FPR and 75 nM L^F, with 0.1 mM GTPγS only background fluorescence
T2 construct: Purified from Sf9 cells and held on DCNi beads by the hexahistidine tag; also called βγ; Gβγ
Procedure: as §1, §2

β1H6γ2 dimer [4] = target: T2, β1H6γ2 dimer; experiment: flow cytometry, β1H6γ2 on DCNi beads, 1 µM GTP against GTPγS background
Procedure: as §1

[5] = target: T1, G protein heterotrimer αi3β1H6γ2; experiment: flow cytometry, LR^FG assembly on αβγ DCNi beads against GTPγS background
Procedure: as §1

[6] = target: T1, G protein heterotrimer αi3β1H6γ2; experiment: flow cytometry, LR^FG assembly on αβγ DCNi beads, FPR-GFP varied with saturating fMLFFGGK; binding nearly linear over the range (FIG. 12D)
[7] = target: T3, formyl peptide receptor with a C-terminal hexahistidine tag (FPR:C-H6) (human, UniProt P21462 1-350); experiment: flow cytometry, hexahistidine-tagged FPR on DCNi beads, L^F titrated (FIG. 9E)
T3 construct: Solubilized from membranes and captured on dextran chelate nickel (DCNi) beads; also called C-H6:FPR
T3 sequence: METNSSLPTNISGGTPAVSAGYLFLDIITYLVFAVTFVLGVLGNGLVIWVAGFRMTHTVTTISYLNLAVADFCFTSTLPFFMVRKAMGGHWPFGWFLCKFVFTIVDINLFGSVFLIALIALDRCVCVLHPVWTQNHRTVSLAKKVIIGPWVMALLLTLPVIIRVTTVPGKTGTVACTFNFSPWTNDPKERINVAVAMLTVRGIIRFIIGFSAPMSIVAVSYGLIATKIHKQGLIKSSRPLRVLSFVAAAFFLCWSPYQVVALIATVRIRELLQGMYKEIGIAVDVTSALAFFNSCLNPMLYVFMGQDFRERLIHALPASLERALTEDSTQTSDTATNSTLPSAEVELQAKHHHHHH
Procedure: The initial bead fluorescence was measured for twenty seconds, then an anti-FITC antibody was mixed with the beads, and the decrease in bead fluorescence was measured for another 100 seconds. The line shown is a best fit to a plateau, followed by an exponential decrease to the bottom.

[8] = target: B1; experiment: spectrofluorimetry, solubilized FPR, free ligand quenched with anti-FITC antibody, ligand-binding curve of FIG. 8B
Procedure: Fluorescence was measured with an SLM 8000 spectrofluorimeter (SLM Instruments, Inc.) using the photon counting mode. The sample holder was fitted with a cylindrical cuvette adapter, which allowed the use of 200 µl samples in 7 mm×45 mm cylindrical cuvettes (Sienco; Wheat Ridge, Colo.), stirred with 2×5 mm stir bars (Bel-Art). […] Emission was monitored using a 520+/−10 nm filter (Corion) and a 500 nm long-pass filter (Kopp; Pittsburg, Pa.). Additions to samples during kinetic measurements were made through an injection port on the top of the sample holder with 10 µl glass syringes (Hamilton; Reno, Nev.).

FPR-GFP fusion protein = target: B3; experiment: flow cytometry, LR^FG assembly on αβγ DCNi beads, L varied; receptor depletes the ligand, so the filing says that the affinity of L for R^F is not revealed (FIG. 12C)
Procedure: as §1, with “Standard LRG Assembly Assay. […] Each” for “Each”

T1 sequence (P62873 2-340, chain 1 of 2): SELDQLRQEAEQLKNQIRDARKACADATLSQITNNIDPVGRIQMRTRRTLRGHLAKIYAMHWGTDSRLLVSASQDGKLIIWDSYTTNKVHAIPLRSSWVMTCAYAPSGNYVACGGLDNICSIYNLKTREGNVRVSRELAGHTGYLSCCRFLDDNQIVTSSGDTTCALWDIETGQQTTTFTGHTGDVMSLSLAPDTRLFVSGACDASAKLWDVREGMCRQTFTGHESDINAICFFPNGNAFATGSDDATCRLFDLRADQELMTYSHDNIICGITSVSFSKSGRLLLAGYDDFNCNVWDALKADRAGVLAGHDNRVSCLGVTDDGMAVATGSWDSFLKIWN
T1 sequence (P59768 other isoform, or with tags, fused parts or gaps, chain 2 of 2): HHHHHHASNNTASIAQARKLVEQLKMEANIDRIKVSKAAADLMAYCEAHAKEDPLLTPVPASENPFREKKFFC
T2 sequence (P62873 2-340, chain 1 of 2): as the sequence (P62873 2-340, chain 1 of 2) above
T2 sequence (P59768 other isoform, or with tags, fused parts or gaps, chain 2 of 2): as the sequence (P59768 other isoform, or with tags, fused parts or gaps, chain 2 of 2) above

Binder: B1
- signal to background [1]: ≤ 4 ratio
- bead fluorescence against uncoated beads [2]: 3 fold
- binding result (β1H6γ2 dimer [3]): no binding

B2: FPR-Giα2 fusion protein (receptor, human;rat)
chain: METNSSLPTNISGGTPAVSAGYLFLDIITYLVFAVTFVLGVLGNGLVIWVAGFRMTHTVTTISYLNLAVADFCFTSTLPFFMVRKAMGGHWPFGWFLCKFVFTIVDINLFGSVFLIALIALDRCVCVLHPVWTQNHRTVSLAKKVIIGPWVMALLLTLPVIIRVTTVPGKTGTVACTFNFSPWTNDPKERINVAVAMLTVRGIIRFIIGFSAPMSIVAVSYGLIATKIHKQGLIKSSRPLRVLSFVAAAFFLCWSPYQVVALIATVRIRELLQGMYKEIGIAVDVTSALAFFNSCLNPMLYVFMGQDFRERLIHALPASLERALTEDSTQTSDTATNSTLPSAEVELQAKAAAMGCTVSAEDKAAAERSKMIDKNLREDGEKAAREVKLLLLGAGESGKSTIVKQMKIIHEDGYSEEECRQYRAVVYSNTIQSIMAIVKAMGNLQIDFADPQRADDARQLFALSCAAEEQGMLPEDLSGVIRRLWADHGVQACFGRSREYQLNDSAAYYLNDLERIAQSDYIPTQQDVLRTRVKTTGIVETHFTFKDLHFKMFDVGGQRSERKKWIHCFEGVTAIIFCVALSAYDLVLAEDEEMNRMHESMKLFDSICNNKWFTDTSIILFLNKKDLFEEKITQSPLTICFPEYTGANKYDEAASYIQSKFEDLNKRKDTKEIYTHFTCATDTKNVQFVFDAVTDVIIKNNLKDCGLF
notes: Solubilized from membranes; in the assays occupied by L^F (fMLFK-FITC), which gives the signal; also called FPR-αi2; FPR-Gαi2
- total fluorescence to background ratio (β1H6γ2 dimer [4]): 2.7 ratio

Binder: B3
- total binding to background ratio [5]: 4.9 ratio
- Kd [6]: 1000 nM

B4: formyl-MLFK-FITC (peptide)
peptide: For-MLFK
modifications: also: FITC conjugate, site not given here
notes: all other places print fMLFK-FITC; also called fMLFK-FITC; fluorescent ligand
- Kd [7]: ~8 nM
- Kd [8]: 4.8 nM

B5: fMLFFGGK (peptide)
peptide: For-MLFFGGK
notes: Synthesized by Commonwealth Biotechnologies; also called non-fluorescent ligand
- EC50 (FPR-GFP fusion protein): 115 nM
